Source: publication PMC4973297, “Crystal structure of the PAS domain of the hEAG potassium channel” (Acta Crystallographica. Section F, Structural Biology …, 2016)

Molecular target: the molecule itself
Assay: SEC; HiLoad 26/60 Superdex 200, 20 mM Tris-HCl pH 7.5, 200 mM NaCl, 5 mM DTT; last step of the purification

B1: N-PAS domain of the human EAG channel (residues 1-146) (domain or fragment, UniProt O95259 1-146, looked up)
chain: MTMAGGRRGLVAPQNTFLENIVRRSNDTNFVLGNAQIVDWPIVYSNDGFCKLSGYHRAEVMQKSSTCSFMYGELTDKDTIEKVRQTFENYEMNSFEILMYKKNRTPVWFFVKIAPIRNEQDKVVLFLCTFSDITAFKQPIEDDSCK
notes: human ether-a-go-go potassium channel (hEAG), N-terminal residues 1-146 holding the PAS domain; amplified from a human cDNA library; calculated mass 16 933.16 Da; The crystal has six molecules per asymmetric unit; Only about residues 27/28 to 135/137 are built in the model; Residues left by PreScission cleavage are not described; also called hEAG N-PAS domain; PAS domain of hEAG; not shown: GST, …
- stoichiometry N: 2
